Data on three molecules can be found in patent US6617118B2, “Monoclonal antibody for analysis and clearance of polyethylene glycol and polyethylene glycol-modified molecules” (priority 1999, dated 2003).

Data set [1] can be described thus: βG enzymatic activity of PEG-modified βG and conjugates. The format is biochemical. The conditions noted are these: purified by gel filtration, 9.2 sPEG groups/βG subunit. A general note: In gel filtration, larger molecules generally elute earlier.
For data set [2] the following is noted: 150 μg i.v., after a period of rapid clearance.
Protocol: Pharmacokinetics of βG-pPEG: Male BALB/c mice were i.v injected with 150 μg βG-pPEG. Serum was isolated from blood samples that were periodically removed from the tail vein of the mice. The concentration of βG-pPEG in serially-diluted serum samples was assayed in triplicate by the AGP3 ELISA. The concentration of βG-pPEG was determined by comparison to a standard curve generated with known concentrations of βG-pPEG.
A sandwich ELISA was developed in which AGP3 was employed for the capture step and AGP3-biotin used for detection. […] Binding of βG-pPEG to the immobilized AGP3 was detected by sequential addition of AGP3-biotin and streptavidin-HRP. Results represent mean values of triplicate determinations. Bars indicate the standard error of the mean. […] The effect of serum on the ELISA was examined by adding 10% mouse serum to samples before assay. […] The AGP3 ELISA was employed to measure the pharmacokinetics of βG-pPEG in mice. In FIG. 7, a BALB/c mouse was i.v. injected with 150 μg βG-pPEG. Blood samples were periodically removed from the tail vein and assayed for βG-pPEG concentration by ELISA.
The conditions of data set [3]: pH values less than 5.0 or greater than 9.0; 4 h at 37° C., assay at pH 7.0.
Protocol: To test the pH stability of βG, enzyme in βG buffer was adjusted to pH values ranging from 3-11 for 4 h at 37° C. before neutralization to pH 7.0 and assay of enzymatic activity.
The test system of data set [4] is immobilized AGP3. The experiment in a line: AGP3 sandwich ELISA (AGP3 capture, AGP3-biotin detection). The format is binding. The conditions noted are these: unmodified protein in PBS. Background: In an ELISA, binding on a coated surface is turned into a signal by an enzyme label.
Protocol: AGP3 ELISA: Maxisorp™ 96-well microplates (Nunc™, Roskilde, Denmark) were coated with 50 μL/well of AGP3 (200 μg/ml in PBS) for 3 h at 37° C. Plates were blocked with 2% skim milk in PBS overnight and washed twice with PBS/T (0.05% Tween-20 in PBS) before serial dilutions of βG or βG-pPEG (50 μL in dilution buffer) were added to wells for 1.5 h at room temperature. Plates were washed 6 times with PBS/T and 50 μL/well AGP3-biotin (20 μg/ml in dilution buffer) was added for 1.5 h at room temperature. Plates were again washed with PBS/T and 50 μL/well streptavidin-HRP (1:1000) was added for 1 h at room temperature. Plates were washed before 100 μL/well ABTS substrate was added for 30 min at room temperature. Absorbance (405 nm) of wells was measured in a microtiter plate reader. The effect of serum on the AGP3 ELISA was examined by performing the assay in the presence of 10% serum isolated from healthy BALB/c mice.
A sandwich ELISA was developed in which AGP3 was employed for the capture step and AGP3-biotin used for detection. In FIG. 6, serial dilutions of βG-pPEG in PBS (◯) or 10% mouse serum (□) as well as βG in PBS (Δ) were incubated in a microtiter plate coated with AGP3. Binding of βG-pPEG to the immobilized AGP3 was detected by sequential addition of AGP3-biotin and streptavidin-HRP. Results represent mean values of triplicate determinations. […]

B1: βG-sPEG: β-glucuronidase modified with sPEG (conjugate, UniProt P05804 1-603, looked up)
Beta-glucuronidase: MLRPVETPTREIKKLDGLWAFSLDRENCGIDQRWWESALQESRAIAVPGSFNDQFADADIRNYAGNVWYQREVFIPKGWAGQRIVLRFDAVTHYGKVWVNNQEVMEHQGGYTPFEADVTPYVIAGKSVRITVCVNNELNWQTIPPGMVITDENGKKKQSYFHDFFNYAGIHRSVMLYTTPNTWVDDITVVTHVAQDCNHASVDWQVVANGDVSVELRDADQQVVATGQGTSGTLQVVNPHLWQPGEGYLYELCVTAKSQTECDIYPLRVGIRSVAVKGEQFLINHKPFYFTGFGRHEDADLRGKGFDNVLMVHDHALMDWIGANSYRTSHYPYAEEMLDWADEHGIVVIDETAAVGFNLSLGIGFEAGNKPKELYSEEAVNGETQQAHLQAIKELIARDKNHPSVVMWSIANEPDTRPQGAREYFAPLAEATRKLDPTRPITCVNVMFCDAHTDTISDLFDVLCLNRYYGWYVQSGDLETAEKVLEKELLAWQEKLHQPIIITEYGVDTLAGLHSMYTDMWSEEYQCAWLDMYHRVFDRVSAVVGEQVWNFADFATSQGILRVGGNKKGIFTRDRKPKSAAFLLQKRWTGMNFGEKPQQGGKQ
modifications: sPEG modified
In the case of B1, the “original enzymatic activity possessed” value in data set [1] is on record as 69%.

B2: βG-pPEG: β-glucuronidase modified with pPEG (conjugate, UniProt P05804 1-603, looked up)
Beta-glucuronidase: B1 Beta-glucuronidase
modifications: pPEG modified
With B2, in data set [2], the “first-order half-life of elimination from the circulation” value is reported as 19.2 h.

B3: Eschericia coli β-glucuronidase (protein, UniProt P05804 1-603, looked up)
Beta-glucuronidase: B1 Beta-glucuronidase
notes: recombinant Eschericia coli-derived β-glucuronidase
For B3, the “pH stability of enzymatic activity” value in data set [3] was “irreversibly deactivated”. The “signal in AGP3 sandwich ELISA” value in data set [4] was “lack of signal”.
